Measured values from patent US20200223915A1 (OSAKA UNIVERSITY, published 2020).
Values belong to the binder of their own block, whether it stands above or below them.

Experiments:
Experiment in all cases: FACS on Claudin-expressing cells
[1] = biological target: T1, wild-type human Claudin 4 protein (human, UniProt O14493 1-209)
T1 construct: Expressed on cells by retrovirus; Wording leaves open whether the entry is the protein or the DNA; also called hCLDN4
T1 sequence: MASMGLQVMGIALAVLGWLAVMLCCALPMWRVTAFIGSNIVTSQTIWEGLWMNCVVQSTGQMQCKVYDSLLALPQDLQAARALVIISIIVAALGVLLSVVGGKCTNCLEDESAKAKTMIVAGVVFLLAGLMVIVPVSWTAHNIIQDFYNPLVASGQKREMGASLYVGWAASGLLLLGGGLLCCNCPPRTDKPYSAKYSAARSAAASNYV
Method: (§1) The cells were washed three times with 0.2% BSA-TBS, and then mixed with 100 μL of a secondary antibody solution (FITC conjugated goat anti-mouse IgG+IgM in 1% BSA-PBS (1:400)), followed by a reaction at 4° C. for 1 hour. The cells were washed with 0.2% BSA-TBS, and FACS analysis (FACS caliber, BD Bioscience) was performed.

[2] = biological target: T2, wild-type mouse Claudin 4 protein (mouse, UniProt O35054 1-210)
T2 construct: Expressed on cells by retrovirus; Wording leaves open whether the entry is the protein or the DNA; also called mCLDN4
T2 sequence: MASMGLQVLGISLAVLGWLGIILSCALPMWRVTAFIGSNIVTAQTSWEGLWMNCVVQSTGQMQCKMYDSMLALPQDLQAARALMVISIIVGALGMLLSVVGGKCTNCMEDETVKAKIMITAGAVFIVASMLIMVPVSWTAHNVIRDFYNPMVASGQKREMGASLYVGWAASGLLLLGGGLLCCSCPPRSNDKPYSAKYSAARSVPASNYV
Method: as §1

[3] = biological target: T3, wild-type human Claudin 3 protein (human, UniProt O15551 1-220)
T3 construct: Expressed on cells by retrovirus; Wording leaves open whether the entry is the protein or the DNA; also called hCLDN3
T3 sequence: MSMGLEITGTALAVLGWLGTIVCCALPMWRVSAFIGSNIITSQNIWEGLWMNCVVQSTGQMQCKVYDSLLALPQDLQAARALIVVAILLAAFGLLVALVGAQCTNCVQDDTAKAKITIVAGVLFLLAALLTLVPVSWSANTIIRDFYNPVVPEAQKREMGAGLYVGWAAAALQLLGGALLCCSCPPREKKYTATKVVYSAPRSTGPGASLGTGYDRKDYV
Method: as §1

[4] = biological target: T4, wild-type mouse Claudin 5 protein (mouse, UniProt O54942 1-218)
T4 construct: also called mCLDN5
T4 sequence: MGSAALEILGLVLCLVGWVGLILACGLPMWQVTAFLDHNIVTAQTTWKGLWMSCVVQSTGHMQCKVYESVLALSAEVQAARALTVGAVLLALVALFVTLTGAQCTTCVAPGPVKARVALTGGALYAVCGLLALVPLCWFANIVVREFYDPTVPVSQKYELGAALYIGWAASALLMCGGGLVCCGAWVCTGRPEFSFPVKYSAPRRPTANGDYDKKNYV
Method: as §1

[5] = biological target: T5, wild-type mouse Claudin 2 protein (mouse, UniProt O88552 1-230)
T5 construct: Expressed on cells by retrovirus; Wording leaves open whether the entry is the protein or the DNA; also called mCLDN2
T5 sequence: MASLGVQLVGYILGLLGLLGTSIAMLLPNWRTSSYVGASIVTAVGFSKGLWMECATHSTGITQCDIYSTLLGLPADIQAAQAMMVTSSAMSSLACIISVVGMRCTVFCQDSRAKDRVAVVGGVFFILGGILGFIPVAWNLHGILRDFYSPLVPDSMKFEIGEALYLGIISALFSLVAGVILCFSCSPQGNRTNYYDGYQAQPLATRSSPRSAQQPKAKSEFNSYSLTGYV
Method: as §1

[6] = biological target: T6, wild-type human Claudin 1 protein (human, UniProt O95832 1-211)
T6 construct: Expressed on cells by retrovirus; also called hCLDN1
T6 sequence: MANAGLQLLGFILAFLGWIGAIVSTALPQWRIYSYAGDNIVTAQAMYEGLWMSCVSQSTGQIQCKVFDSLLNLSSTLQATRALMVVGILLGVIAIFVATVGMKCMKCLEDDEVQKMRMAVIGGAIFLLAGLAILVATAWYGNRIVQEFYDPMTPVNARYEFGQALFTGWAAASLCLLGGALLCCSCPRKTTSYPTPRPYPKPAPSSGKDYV
Method: as §1

[7] = biological target: T7, wild-type mouse Claudin 1 protein (mouse, UniProt O88551 1-211)
T7 construct: Expressed on cells by retrovirus; Wording leaves open whether the entry is the protein or the DNA; also called mCLDN1
T7 sequence: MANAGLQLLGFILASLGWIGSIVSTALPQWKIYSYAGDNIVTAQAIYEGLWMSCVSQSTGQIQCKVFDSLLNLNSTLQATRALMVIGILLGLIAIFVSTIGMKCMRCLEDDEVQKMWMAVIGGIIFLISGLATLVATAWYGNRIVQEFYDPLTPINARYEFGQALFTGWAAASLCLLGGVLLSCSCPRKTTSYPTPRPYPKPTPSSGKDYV
Method: as §1

[8] = biological target: T8, wild-type human Claudin 9 protein (human, UniProt O95484 1-217)
T8 construct: Expressed on cells by retrovirus; Wording leaves open whether the entry is the protein or the DNA; also called hCLDN9
T8 sequence: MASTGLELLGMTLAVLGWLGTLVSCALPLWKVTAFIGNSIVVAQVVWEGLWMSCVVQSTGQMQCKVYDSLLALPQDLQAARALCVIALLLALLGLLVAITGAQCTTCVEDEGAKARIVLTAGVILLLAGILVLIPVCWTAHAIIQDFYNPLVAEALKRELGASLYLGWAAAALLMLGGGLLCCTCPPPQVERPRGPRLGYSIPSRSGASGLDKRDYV
Method: as §1

[9] = biological target: T9, wild-type human Claudin 2 protein (human, UniProt P57739 1-230)
T9 construct: Expressed on cells by retrovirus; Wording leaves open whether the entry is the protein or the DNA; also called hCLDN2
T9 sequence: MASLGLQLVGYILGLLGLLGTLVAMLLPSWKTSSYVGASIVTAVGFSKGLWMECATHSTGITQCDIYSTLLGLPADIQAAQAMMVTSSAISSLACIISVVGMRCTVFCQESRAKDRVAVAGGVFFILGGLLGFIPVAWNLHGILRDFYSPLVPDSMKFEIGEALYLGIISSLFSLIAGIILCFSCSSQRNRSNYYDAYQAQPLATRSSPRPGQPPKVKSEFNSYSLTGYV
Method: as §1

binding result [1]: no binding (tested: 10 µg/mL)
binding result [2]: no binding (tested: 10 µg/mL)
binding result [3]: no binding (tested: 10 µg/mL)
binding result [4]: no binding (tested: 10 µg/mL)
binding result [5]: no binding (tested: 10 µg/mL)
binding result [6]: no binding (tested: 10 µg/mL)
binding result [7]: no binding (tested: 10 µg/mL)
binding result [8]: no binding (tested: 10 µg/mL)
binding result [9]: no binding (tested: 10 µg/mL)
B1: antibody 2B1 (antibody, IgG2a, V domains shown)
VH: QVQLQQPGAELVKPGASVKLSCKASGYTFTTFWIHWVKQRPGRGLEWIGRIAPYSGGTTYNEKFKSKATLTVDRPSTTAYMQLISLTSEDSAVYYCARWDFTYGSNLDYWGQGTTLTVSS
VL: DIVMTQSQKFMSTSVGDRVSIPCKASQNVRTAVAWYQQKPGQSPKALIYLASNRHTGVPDRFTGSGSGTDFTLTISNVQSEDLADYFCLGHWDYPYTFGGGTKLEIKR
notes: also called antibody B

binding result [1]: no binding (tested: 10 µg/mL)
binding result [2]: no binding (tested: 10 µg/mL)
binding result [3]: no binding (tested: 10 µg/mL)
binding result [4]: no binding (tested: 10 µg/mL)
binding result [5]: no binding (tested: 10 µg/mL)
binding result [6]: no binding (tested: 10 µg/mL)
binding result [7]: no binding (tested: 10 µg/mL)
binding result [8]: no binding (tested: 10 µg/mL)
binding result [9]: no binding (tested: 10 µg/mL)
B2: antibody 2B12 (antibody, IgG2a, V domains shown)
VH: QVQLQQSGAELARPGASVKLSCKASGYTFTRFGMSWVKQRTGQGLEWIGEIYPGSGDTYYSENFKGKATLTADKSSGTAYMELRSLTSEDSAVYFCARWGIYYGNPYAMDYWGQGTSVTVSS
VL: DIVMTQAAPSVPVTPGESVSISCRSSKSLLHSNGNTYLYWFLQRPGQSPQLLIYRMSNLASGVPDRFSGSGSGTAFTLRISRVEAEDVGVYYCLQHLEYPFTFGSGTKLEIKR
notes: also called antibody A
